Changes are numbered by the printed parent chain. Numbers in names are those of the source.
T1: human FcγRIIb receptor protein (R&D Systems) (human, UniProt P31994 46-217)
T1 construct: Bought protein injected over captured antibody in Biacore; also called CD32b
T1 sequence (looked up): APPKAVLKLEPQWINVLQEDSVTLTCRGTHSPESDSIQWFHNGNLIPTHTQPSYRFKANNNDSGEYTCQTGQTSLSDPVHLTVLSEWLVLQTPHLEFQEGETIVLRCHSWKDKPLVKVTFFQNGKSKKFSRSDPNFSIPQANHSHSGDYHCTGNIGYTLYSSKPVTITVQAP

T2: human FcγRIIa (131R), His- and GST-tagged (human, UniProt P12318 34-217)
T2 construct: Expressed in HEK293T cells, purified by nickel chromatography; also called R131 FcγRIIa; not shown: 6xHis and GST tags of the pTT5 vector
T2 sequence (looked up): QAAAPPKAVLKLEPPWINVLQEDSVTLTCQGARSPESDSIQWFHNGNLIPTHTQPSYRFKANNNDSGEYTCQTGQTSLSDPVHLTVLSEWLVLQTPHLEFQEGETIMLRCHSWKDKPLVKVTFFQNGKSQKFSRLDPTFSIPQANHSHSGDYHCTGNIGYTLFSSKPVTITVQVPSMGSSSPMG

T3: human FcγRIIa (131H), His- and GST-tagged (human, UniProt P12318 34-217)
T3 construct: also called H131 FcγRIIa; HIIa; not shown: 6xHis and GST tags of the pTT5 vector
T3 sequence (looked up): T2 sequence (looked up) with R134H

T4: mFcγRIIb (Mus musculus, UniProt P08101)
T4 construct: extracellular region, C-terminal His- and GST-tag; also called mouse FcγRII
T4 sequence (receptor extracellular region, looked up): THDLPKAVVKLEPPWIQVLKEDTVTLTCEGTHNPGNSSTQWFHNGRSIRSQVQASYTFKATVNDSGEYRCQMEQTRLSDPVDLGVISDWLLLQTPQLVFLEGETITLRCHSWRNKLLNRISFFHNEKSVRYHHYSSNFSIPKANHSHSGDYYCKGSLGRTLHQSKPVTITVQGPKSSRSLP

T5: mFcγRIV
T5 construct: also called mouse FcγRIV; not shown: C-terminal His and GST tags (named only on our card)
T5 chain: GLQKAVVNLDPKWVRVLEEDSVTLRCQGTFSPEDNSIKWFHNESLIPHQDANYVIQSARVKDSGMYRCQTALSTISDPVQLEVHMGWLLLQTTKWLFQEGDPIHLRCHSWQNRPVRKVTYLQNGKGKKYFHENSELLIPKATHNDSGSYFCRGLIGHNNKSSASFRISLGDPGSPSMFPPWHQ

T6: cynoFcγRIIb (Macaca fascicularis, UniProt A0A140HDP4)
T6 construct: extracellular region, C-terminal His- and GST-tag; also called cynomolgus monkey FcγRIIb
T6 sequence (receptor extracellular region): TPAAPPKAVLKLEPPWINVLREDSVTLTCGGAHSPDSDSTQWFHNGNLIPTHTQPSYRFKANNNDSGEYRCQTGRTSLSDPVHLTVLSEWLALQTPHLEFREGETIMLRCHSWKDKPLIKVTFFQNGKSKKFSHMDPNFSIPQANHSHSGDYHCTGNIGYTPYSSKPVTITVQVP

B1: S239D/S267E/L328F (antibody, human IgG1, kappa)
heavy: EVQLVESGGGLVKPGGSLKLSCAASGYTFTSYVMHWVRQAPGKGLEWIGYINPYNDGTKYNEKFQGRVTISSDKSISTAYMELSSLRSEDTAMYYCARGTYYYGTRVFDYWGQGTLVTVSSASTKGPSVFPLAPSSKSTSGGTAALGCLVKDYFPEPVTVSWNSGALTSGVHTFPAVLQSSGLYSLSSVVTVPSSSLGTQTYICNVNHKPSNTKVDKKVEPKSCDKTHTCPPCPAPELLGGPDVFLFPPKPKDTLMISRTPEVTCVVVDVEHEDPEVKFNWYVDGVEVHNAKTKPREEQYNSTYRVVSVLTVLHQDWLNGKEYKCKVSNKAFPAPIEKTISKAKGQPREPQVYTLPPSREEMTKNQVSLTCLVKGFYPSDIAVEWESNGQPENNYKTTPPVLDSDGSFFLYSKLTVDKSRWQQGNVFSCSVMHEALHNHYTQKSLSLSPGK
light: DIVMTQSPATLSLSPGERATLSCRSSKSLQNVNGNTYLYWFQQKPGQSPQLLIYRMSNLNSGVPDRFSGSGSGTEFTLTISSLEPEDFAVYYCMQHLEYPITFGAGTKLEIKRTVAAPSVFIFPPSDEQLKSGTASVVCLLNNFYPREAKVQWKVDNALQSGNSQESVTEQDSKDSTYSLSSTLTLSKADYEKHKVYACEVTHQGLSSPVTKSFNRGEC
notes: HuAM4G7 anti-CD19 IgG1 (m1) with these Fc substitutions, EU index; copies: 2 + 2
B2: S239D/H268D (antibody, human IgG1, kappa)
heavy: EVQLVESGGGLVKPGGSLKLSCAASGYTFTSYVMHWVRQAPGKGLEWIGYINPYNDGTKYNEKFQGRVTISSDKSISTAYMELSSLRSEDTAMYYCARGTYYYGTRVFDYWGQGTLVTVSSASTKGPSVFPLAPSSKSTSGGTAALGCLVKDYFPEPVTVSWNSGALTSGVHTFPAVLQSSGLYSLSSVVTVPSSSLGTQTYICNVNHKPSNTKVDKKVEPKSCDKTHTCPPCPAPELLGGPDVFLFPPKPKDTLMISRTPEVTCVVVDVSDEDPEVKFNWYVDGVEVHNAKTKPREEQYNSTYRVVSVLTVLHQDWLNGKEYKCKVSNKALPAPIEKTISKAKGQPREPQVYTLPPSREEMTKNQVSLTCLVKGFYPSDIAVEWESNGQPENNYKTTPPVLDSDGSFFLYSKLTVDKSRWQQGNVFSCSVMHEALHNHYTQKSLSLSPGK
light: B1 light
notes: as for B1
B3: H268D/A327D (antibody, human IgG1, kappa)
heavy: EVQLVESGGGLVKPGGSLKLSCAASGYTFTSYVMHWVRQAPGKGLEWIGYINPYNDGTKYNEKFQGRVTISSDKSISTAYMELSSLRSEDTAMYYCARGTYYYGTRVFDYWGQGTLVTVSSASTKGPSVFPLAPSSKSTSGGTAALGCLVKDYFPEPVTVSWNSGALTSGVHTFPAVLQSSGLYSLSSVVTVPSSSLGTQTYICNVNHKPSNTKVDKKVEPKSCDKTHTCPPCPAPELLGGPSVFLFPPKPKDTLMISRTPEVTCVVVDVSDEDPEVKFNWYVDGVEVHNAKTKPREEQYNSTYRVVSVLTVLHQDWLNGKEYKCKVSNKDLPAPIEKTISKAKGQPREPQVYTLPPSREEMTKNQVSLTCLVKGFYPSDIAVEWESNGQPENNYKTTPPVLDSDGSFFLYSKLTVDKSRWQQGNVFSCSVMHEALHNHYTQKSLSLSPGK
light: B1 light
notes: as for B1
B4: S267E/H268E/L328F (antibody, human IgG1, kappa)
heavy: B1 heavy with D243S, H272E
light: B1 light
notes: as for B1
B5: L235D/S239D (antibody, human IgG1, kappa)
heavy: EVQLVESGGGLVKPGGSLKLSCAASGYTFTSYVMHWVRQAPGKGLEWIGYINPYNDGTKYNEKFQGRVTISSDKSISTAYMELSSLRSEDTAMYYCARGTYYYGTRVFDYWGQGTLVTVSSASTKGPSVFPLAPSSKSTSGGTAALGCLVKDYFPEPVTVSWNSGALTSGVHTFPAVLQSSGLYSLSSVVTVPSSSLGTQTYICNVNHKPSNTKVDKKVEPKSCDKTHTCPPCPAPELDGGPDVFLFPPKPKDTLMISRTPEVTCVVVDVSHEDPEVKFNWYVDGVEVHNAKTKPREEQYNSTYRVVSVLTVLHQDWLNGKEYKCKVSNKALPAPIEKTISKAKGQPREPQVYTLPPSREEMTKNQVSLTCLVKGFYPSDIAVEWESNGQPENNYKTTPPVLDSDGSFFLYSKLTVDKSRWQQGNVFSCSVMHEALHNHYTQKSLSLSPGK
light: B1 light
notes: as for B1
B6: H268Q (antibody, human IgG1, kappa)
heavy: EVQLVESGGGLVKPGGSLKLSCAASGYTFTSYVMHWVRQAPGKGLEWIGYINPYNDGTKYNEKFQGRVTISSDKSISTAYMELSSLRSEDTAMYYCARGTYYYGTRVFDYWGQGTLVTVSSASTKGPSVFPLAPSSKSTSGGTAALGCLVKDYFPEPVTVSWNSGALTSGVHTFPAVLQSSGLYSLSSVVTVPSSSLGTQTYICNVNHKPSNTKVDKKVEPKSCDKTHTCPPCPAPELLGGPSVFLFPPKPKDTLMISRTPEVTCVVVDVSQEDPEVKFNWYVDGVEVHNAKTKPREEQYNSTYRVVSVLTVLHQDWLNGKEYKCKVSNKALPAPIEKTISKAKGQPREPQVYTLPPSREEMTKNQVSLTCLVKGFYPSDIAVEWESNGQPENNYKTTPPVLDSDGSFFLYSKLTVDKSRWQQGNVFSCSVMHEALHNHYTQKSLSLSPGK
light: B1 light
notes: HuAM4G7 anti-CD19 IgG1 (m1) with this Fc substitution, EU index; copies: 2 + 2
B7: S267D/H268D (antibody, human IgG1, kappa)
heavy: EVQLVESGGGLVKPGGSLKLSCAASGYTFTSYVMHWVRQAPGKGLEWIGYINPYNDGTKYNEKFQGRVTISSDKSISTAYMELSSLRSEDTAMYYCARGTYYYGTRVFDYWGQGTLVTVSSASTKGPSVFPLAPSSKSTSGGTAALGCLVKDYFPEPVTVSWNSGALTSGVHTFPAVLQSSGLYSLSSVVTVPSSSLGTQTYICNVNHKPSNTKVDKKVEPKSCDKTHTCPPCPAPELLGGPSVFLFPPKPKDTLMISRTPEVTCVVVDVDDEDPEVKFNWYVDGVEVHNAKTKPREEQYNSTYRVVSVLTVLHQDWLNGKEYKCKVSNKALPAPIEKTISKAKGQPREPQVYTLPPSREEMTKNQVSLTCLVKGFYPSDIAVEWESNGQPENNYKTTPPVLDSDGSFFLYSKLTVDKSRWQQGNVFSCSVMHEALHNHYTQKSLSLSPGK
light: B1 light
notes: as for B1
B8: S239D/S267D (antibody, human IgG1, kappa)
heavy: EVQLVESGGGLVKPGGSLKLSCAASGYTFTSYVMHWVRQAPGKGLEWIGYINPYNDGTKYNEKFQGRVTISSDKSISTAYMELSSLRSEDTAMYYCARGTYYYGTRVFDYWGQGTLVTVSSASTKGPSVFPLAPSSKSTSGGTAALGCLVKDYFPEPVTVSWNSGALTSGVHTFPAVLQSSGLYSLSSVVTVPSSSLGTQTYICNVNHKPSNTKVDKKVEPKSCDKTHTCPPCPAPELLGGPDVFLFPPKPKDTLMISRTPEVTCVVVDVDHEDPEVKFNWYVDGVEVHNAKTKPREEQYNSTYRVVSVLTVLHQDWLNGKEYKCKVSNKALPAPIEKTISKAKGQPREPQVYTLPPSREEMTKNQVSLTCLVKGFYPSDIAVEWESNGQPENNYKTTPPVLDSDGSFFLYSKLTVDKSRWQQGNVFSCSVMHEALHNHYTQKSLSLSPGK
light: B1 light
notes: as for B1
B9: S267E/L328Q (antibody, human IgG1, kappa)
heavy: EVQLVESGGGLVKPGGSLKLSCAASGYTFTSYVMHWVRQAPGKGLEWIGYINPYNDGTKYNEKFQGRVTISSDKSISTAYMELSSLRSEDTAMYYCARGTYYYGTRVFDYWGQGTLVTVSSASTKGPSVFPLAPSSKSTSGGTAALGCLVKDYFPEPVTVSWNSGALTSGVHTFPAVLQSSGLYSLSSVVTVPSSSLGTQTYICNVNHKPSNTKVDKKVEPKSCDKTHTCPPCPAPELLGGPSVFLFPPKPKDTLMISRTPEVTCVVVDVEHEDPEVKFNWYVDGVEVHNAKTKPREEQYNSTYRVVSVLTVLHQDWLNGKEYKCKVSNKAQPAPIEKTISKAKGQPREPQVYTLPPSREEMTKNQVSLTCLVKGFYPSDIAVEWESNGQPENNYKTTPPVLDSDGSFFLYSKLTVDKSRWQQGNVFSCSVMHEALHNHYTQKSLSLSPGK
light: B1 light
notes: as for B1
B10: S239N (antibody, human IgG1, kappa)
heavy: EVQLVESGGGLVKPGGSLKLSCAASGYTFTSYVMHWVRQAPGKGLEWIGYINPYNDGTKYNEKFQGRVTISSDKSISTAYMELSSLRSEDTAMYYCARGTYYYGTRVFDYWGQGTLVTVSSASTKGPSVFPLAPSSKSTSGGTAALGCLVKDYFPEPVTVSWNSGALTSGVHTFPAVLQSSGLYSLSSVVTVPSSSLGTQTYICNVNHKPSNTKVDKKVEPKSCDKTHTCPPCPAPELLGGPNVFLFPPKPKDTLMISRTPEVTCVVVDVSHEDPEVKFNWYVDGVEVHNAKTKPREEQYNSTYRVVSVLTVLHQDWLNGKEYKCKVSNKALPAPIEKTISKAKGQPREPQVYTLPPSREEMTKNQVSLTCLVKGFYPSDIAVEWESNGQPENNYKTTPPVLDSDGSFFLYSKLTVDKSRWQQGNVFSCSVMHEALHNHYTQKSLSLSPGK
light: B1 light
notes: as for B6
B11: A327G (antibody, human IgG1, kappa)
heavy: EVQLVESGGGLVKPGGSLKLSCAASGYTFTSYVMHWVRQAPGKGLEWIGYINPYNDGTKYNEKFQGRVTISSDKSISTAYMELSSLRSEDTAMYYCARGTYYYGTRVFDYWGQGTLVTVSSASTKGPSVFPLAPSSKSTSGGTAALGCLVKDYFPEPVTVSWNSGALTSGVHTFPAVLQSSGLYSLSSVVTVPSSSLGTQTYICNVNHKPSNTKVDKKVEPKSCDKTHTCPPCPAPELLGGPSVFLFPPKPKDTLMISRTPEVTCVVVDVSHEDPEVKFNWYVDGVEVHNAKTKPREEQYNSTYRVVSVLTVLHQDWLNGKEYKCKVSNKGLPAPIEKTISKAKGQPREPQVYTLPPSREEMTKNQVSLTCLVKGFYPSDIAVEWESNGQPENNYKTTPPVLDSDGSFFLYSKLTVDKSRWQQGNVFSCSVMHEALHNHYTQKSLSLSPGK
light: B1 light
notes: as for B6
B12: D265E (antibody, human IgG1, kappa)
heavy: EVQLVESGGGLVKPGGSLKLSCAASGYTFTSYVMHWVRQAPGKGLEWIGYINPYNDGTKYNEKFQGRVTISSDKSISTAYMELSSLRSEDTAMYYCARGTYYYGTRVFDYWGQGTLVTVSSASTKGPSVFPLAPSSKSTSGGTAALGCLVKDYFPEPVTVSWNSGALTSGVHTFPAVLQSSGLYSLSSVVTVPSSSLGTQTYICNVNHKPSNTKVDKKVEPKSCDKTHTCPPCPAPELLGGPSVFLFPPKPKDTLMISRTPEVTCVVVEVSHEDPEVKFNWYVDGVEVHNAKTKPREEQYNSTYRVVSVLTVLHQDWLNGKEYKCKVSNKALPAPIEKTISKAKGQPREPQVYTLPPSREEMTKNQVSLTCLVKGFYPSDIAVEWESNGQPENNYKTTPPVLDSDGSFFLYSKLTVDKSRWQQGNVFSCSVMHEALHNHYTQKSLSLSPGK
light: B1 light
notes: as for B6
B13: H268N (antibody, human IgG1, kappa)
heavy: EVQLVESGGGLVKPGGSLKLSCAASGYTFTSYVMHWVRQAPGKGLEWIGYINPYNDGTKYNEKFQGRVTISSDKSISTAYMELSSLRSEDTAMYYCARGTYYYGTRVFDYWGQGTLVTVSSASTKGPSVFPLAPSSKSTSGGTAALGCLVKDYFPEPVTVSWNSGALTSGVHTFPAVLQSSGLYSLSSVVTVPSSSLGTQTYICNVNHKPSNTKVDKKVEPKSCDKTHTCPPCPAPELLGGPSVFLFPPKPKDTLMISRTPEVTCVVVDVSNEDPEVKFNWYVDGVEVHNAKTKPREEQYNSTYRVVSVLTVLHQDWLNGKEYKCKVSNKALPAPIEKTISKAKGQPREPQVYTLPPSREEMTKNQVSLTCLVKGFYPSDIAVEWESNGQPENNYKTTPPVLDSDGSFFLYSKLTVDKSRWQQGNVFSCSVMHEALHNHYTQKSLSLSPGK
light: B1 light
notes: as for B6

The binders below were run against T1, human FcγRIIb receptor protein (R&D …) (assay: SPR).

| Binder | Fold vs WT IgG1 | Kd | binding result |
| --- | --- | --- | --- |
| B1 | 428 fold | 3.43 nM |  |
| B2 | 14.4 fold | 102 nM |  |
| B3 | 7.68 fold | 191 nM |  |
| B4 | 344 fold | 4.26 nM |  |
| B5 | 4.11 fold | 357 nM |  |
| B6 |  |  | no binding |
| B7 | 14.2 fold | 103 nM |  |
| B8 | 22.3 fold | 65.9 nM |  |
| B9 | 12.1 fold | 121 nM |  |
| B10 | 1.45 fold | 1010 nM |  |
| B11 | 0.353 fold | 4160 nM |  |
| B12 | 0.417 fold | 3520 nM |  |
| B13 | 1.17 fold | 1250 nM |  |

What follows are binders tested against T7, human FcγRI receptor protein (R&D Systems) (human, UniProt P12314 16-288) (assay: SPR).
T7 construct: also called soluble FcγRI; solFcγRI
T7 sequence (P12314 16-288 limits assumed): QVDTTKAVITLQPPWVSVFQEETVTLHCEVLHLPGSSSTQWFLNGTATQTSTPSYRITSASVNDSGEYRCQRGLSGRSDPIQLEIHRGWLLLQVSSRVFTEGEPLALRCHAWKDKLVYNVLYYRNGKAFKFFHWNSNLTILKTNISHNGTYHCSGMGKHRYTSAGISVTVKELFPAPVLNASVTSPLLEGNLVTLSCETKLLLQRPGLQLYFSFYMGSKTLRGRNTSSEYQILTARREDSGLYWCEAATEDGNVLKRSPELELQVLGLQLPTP

| Binder | Fold vs WT IgG1 | Kd |
| --- | --- | --- |
| B1 | 1.45 fold | 0.227 nM |
| B4 | 0.991 fold | 0.333 nM |

What follows are binders tested against T2, human FcγRIIa (131R), His- and … (assay: SPR).

| Binder | Fold vs WT IgG1 | Kd |
| --- | --- | --- |
| B1 | 416 fold | 2.06 nM |
| B4 | 253 fold | 3.4 nM |
| B6 | 1.58 fold | 544 nM |
| B10 | 0.867 fold | 990 nM |
| B11 | 0.319 fold | 2690 nM |
| B12 | 0.307 fold | 2790 nM |
| B13 | 1.79 fold | 481 nM |

What follows are binders tested against T3, human FcγRIIa (131H), His- and … (assay: SPR).

| Binder | Fold vs WT IgG1 | Kd |
| --- | --- | --- |
| B1 | 1.71 fold | 378 nM |
| B4 | 0.826 fold | 783 nM |

What follows are binders tested against T8, human FcγRIIIa (158V), His- and GST-tagged (human, UniProt P08637 17-208) (assay: SPR).
T8 construct: also called V158 FcγRIIIa; VIIIa; not shown: 6xHis and GST tags of the pTT5 vector
T8 sequence (P08637 17-208 F176V): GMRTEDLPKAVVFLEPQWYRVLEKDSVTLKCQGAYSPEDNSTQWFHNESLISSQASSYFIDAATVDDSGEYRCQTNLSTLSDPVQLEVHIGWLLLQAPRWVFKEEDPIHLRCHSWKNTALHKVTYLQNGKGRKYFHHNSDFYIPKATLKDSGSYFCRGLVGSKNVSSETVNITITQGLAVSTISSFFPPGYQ

| Binder | Fold vs WT IgG1 | Kd |
| --- | --- | --- |
| B1 | 0.216 fold | 887 nM |
| B4 | 0.092 fold | 2080 nM |

The binders below were run against T4, mFcγRIIb (assay: SPR).

| Binder | Fold vs WT IgG1 (Kd) | Fold vs WT IgG1 (off-rate) |
| --- | --- | --- |
| B3 | 3.22 fold | 5.09 fold |
| B6 |  | 0.877 fold |
| B7 | 0.902 fold | 0.968 fold |
| B8 | 1.98 fold |  |
| B9 |  | 0.881 fold |
| B10 |  | 0.61 fold |
| B11 |  | 1.45 fold |
| B12 |  | 0.833 fold |
| B13 |  | 1.6 fold |

Target: T5, mFcγRIV
Assay: SPR

| Binder | Fold vs WT IgG1 (Kd) | Fold vs WT IgG1 (off-rate) |
| --- | --- | --- |
| B2 | 1.06 fold | 2.21 fold |
| B3 | 0.443 fold |  |
| B5 |  | 1.57 fold |
| B6 |  | 1.08 fold |
| B7 | 0.598 fold |  |
| B8 | 1 fold | 1.88 fold |
| B9 |  | 0.454 fold |
| B10 |  | 1.07 fold |
| B11 |  | 1.23 fold |
| B12 |  | 0.526 fold |
| B13 |  | 1.02 fold |

Each binder was assayed against T6, cynoFcγRIIb (assay: SPR).

| Binder | Fold vs WT IgG1 (Kd) | Fold vs WT IgG1 (off-rate) |
| --- | --- | --- |
| B1 | 4.58 fold |  |
| B3 | 1.47 fold | 1.8 fold |
| B4 | 3.51 fold |  |
| B6 |  | 0.864 fold |
| B7 | 1.86 fold | 1.96 fold |
| B8 | 1.79 fold |  |
| B9 |  | 0.367 fold |
| B10 |  | 0.66 fold |
| B11 |  | 0.903 fold |
| B12 |  | 0.648 fold |
| B13 |  | 1.34 fold |

What follows are binders tested against T9, cynoFcγRIIIa (Macaca fascicularis, UniProt Q8SPW2) (assay: SPR).
T9 construct: extracellular region, C-terminal His- and GST-tag; also called cynomolgus monkey FcγRIIIa
T9 sequence (Q8SPW2 17-208): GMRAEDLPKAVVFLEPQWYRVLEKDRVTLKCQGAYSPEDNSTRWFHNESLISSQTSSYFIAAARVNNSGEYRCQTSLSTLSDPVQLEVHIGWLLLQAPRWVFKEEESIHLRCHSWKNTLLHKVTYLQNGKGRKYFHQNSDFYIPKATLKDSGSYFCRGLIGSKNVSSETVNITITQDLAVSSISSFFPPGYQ

| Binder | Fold vs WT IgG1 (Kd) | Fold vs WT IgG1 (off-rate) |
| --- | --- | --- |
| B1 | 1.17 fold |  |
| B2 | 8.68 fold | 3.62 fold |
| B3 | 1.73 fold |  |
| B4 | 1.04 fold |  |
| B5 |  | 1.41 fold |
| B6 |  | 0.983 fold |
| B7 | 5.33 fold |  |
| B8 | 7.66 fold | 2.73 fold |
| B9 |  | 0.124 fold |
| B10 |  | 1.15 fold |
| B11 |  | 0.443 fold |
| B12 |  | 0.636 fold |
| B13 |  | 0.99 fold |

From patent US20130315910A1 (Xencor, published 2013)
